# B1: full-length RIN4, Q8GYN5 1-211 (natural protein)
# chain: MARSNVPKFGNWEAEENVPYTAYFDKARKTRAPGSKIMNPNDPEYNSDSQSQAPPHPPSSRTKPEQVDTVRRSREHMRSREESELKQFGDAGGSSNEAANKRQGRASQNNSYDNKSPLHKNSYDGTGKSRPKPTNLRADESPEKVTVVPKFGDWDENNPSSADGYTHIFNKVREERSSGANVSGSSRTPTHQSSRNPNNTSSCCCFGFGGK
# Experiments:
# [1] = target: T1, avirulence protein B (AvrB), wild type (Pseudomonas syringae pv. glycinea), P13835; assay: ITC; VP-ITC microcalorimeter; RIN4_(142–176) peptide (50 to 450 μM) titrated in 6-μl injections into 5 to 25 μM wild-type or variant AvrB, stirring at 255 rpm; wild-type AvrB 6 μM with full-length RIN4 120 μM; nonbinding confirmed at as much as 25 μM and 450 μM; details: remark: other sources report otherwise
# T1 sequence (P13835 whole entry): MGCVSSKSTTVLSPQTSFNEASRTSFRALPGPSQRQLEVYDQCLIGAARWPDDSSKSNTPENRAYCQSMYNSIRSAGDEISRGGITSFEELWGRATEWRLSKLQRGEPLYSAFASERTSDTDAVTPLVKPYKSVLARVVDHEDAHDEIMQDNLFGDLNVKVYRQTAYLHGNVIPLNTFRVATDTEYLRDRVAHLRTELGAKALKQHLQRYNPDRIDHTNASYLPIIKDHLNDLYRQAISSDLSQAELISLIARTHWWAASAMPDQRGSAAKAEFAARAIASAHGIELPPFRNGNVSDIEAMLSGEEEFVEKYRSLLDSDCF
# [2] = target: T1, avirulence protein B (AvrB), wild type …; assay: as above; details: remark: other sources report otherwise; remark: listed apart in the source
binder,measurement,setting,value
B1,Kd,[1],1000 nM
same,Kd,[2],4000 nM
